The record followed here is PMC10986514.

The target of this test is SARS-CoV-2 RBD single mutant E484K (SARS-CoV-2) (UniProt P0DTC2). Nature of the test: peptide or protein array.
“Tri-Ty1 multimodular nanobody (three Ty1 modules) (VHH)” yielded a percent decrease of the binding signal against wild-type RBD of 96%.

For the substance “Tri-TMV multimodular nanobody (Ty1, MR17-K99Y and VHH V modules)”, the percent decrease of the binding signal against wild-type RBD worked out at 40%.

As for “Tri-TMH multimodular nanobody (Ty1, MR17-K99Y and H11-H4 modules) (VHH)”, the percent decrease of the binding signal against wild-type RBD stood at 60%.
